Test results as given in the supplement of paper PMC10567573.

B1: ZNF449 (parent)
chain: CTHCSKSFRQRAGLIMHQVTHFRG

Variants of: B1
Assay: protein stability index of a GFP-peptide fusion (GPS, HEK-293T) (PSI 1-6); higher = more stable
Conditions: c terminus: a fixed tail appended
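Also: lentivirally expressed fusions sorted by FACS into six bins by GFP to DsRed ratio, PSI derived from sequencing read proportions per bin multiplied by bin number.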

Protein stability index, by site and new letter:
S7: P 1.59; L 2.69; T 1.08; Y 2.44; K 2.62; W 1.78; F 2.49; Q 1.76; R 1.31; M 1.57; E 2.29; D 2.18; N 2.58; I 1.73; A 2.14; C 2.98; V 2.22
C4: N 2.17; P 1.6; E 1.77; W 3.01; M 1.68; R 2.11; D 1.66; I 2.58; V 1.58; Q 1.98; K 1.63; L 2.13; T 2.18; S 1.33; H 2.39; A 2.6; G 1.8
I15: D 2.93; H 2.2; Q 2.76; W 2.9; K 2.36; P 1.22; G 1.94; E 3.59; R 2.66; A 2.39; F 2.4; S 3.21; V 3.12; T 2.3; M 2.49; N 1.73; Y 2.44
Q18: G 1.32; K 1.69; P 3.9; D 2.79; R 1.73; I 1.96; T 1.43; A 1.51; M 1.69; E 2.09; Y 3.18; F 1.67; C 1.9; L 2.11; W 1.29; N 1.53; S 2.48; H 1.72; V 1.52
V19: M 2.12; Q 2; D 1.81; E 3.08; P 1.76; L 2.92; G 2.74; F 2.4; C 3.24; R 3.95; W 2.71; S 1.79; A 2.01; I 2.91; N 2.82; T 1.88; Y 2.55; H 1.89; K 3.79
R11: N 1.8; T 1.69; D 1.58; M 3.23; K 1.82; Y 2.29; G 2.28; E 2.79; A 2.28; H 1.87; C 3.42; L 3.44; W 1.94; S 1.48; P 1.84; V 2.23; F 2.46; Q 1.8
L14: N 1.49; M 1.97; Q 2.02; H 2; K 2.05; D 2.14; I 1.3; R 2.01; V 2.37; G 1.41; S 1.9; W 2.05; C 1.73; T 2.09; P 1.54; F 2.54; Y 1.5; E 1.95
T2: S 1.98; V 1.98
Q10: Y 1.95; R 1.6; F 1.9; L 1.59; P 1.76; C 2.43; T 2.75; D 3.41; W 2.77; I 1.67; A 2.51; H 2.13; E 2.61; M 1.86; N 2.15; S 1.99; V 2.19; K 2.58
R9: G 2.18; E 2.15; P 2.29; K 2.81; Y 1.79; V 3.17; D 3.85; C 2.33; I 1.94; M 2.9; Q 2.63; N 2.77; T 2.77; W 2.07; H 1.87; A 2.58; S 3.04; L 1.96
F22: D 2.37; H 3.29; E 1.98; K 2.06; M 2.18; A 1.72; I 1.92; G 2.61; L 1.93; C 3.06
H17: R 1.82; G 3.28; T 1.47; E 2.36; K 2.24; D 2.46; L 1.69; I 2.52; W 2.12; P 1.03; C 2.29; M 2.44; N 1.43
F8: K 1.9; I 2.15; L 1.79; P 1.81; M 1.38; H 1.44; Y 3.03; V 1.07; Q 2.17; C 2.74; T 1.7; A 1.91; R 2.1; S 2.43; D 1.54; E 2.19; N 2.04
K6: D 1.62; R 1.91; C 1.52; Q 3.32; A 4.92; T 2.84; Y 2.62; M 1.88; I 2.47; E 1.58; L 2.3
A12: C 2.29; D 3.09; E 3.82; Q 3.53; I 2.36; R 3.35; W 2.53; Y 1.9; M 2.25; P 2.69; T 2.2; V 1.48; K 3.49; L 2.11; H 1.88; N 2.06; F 2.25; G 2.44
S5: P 2.28; E 1.67; K 2.52; Y 2.75; W 2.06; N 1.88; T 1.49; L 1.49; M 1.56; R 1.7; A 1.98; F 1.7; C 2.1; D 1.73; G 2.06; H 2.03
G13: T 2.36; E 3.16; C 1.07; R 2.65; Q 2.87; F 1.95; M 2.12; Y 1.31; N 2.69; S 1.52; A 2.47; W 1.87; L 1.68; P 1.23; V 2.58; H 1.4; K 2.06; I 1.96
T20: H 2.33; Y 2.05; S 1.45; K 2.33; V 1.73; Q 1.83; N 2.44; M 1.56; E 1.99; F 2.09; W 2.09; L 1.43; G 2.06; A 2.04; C 1.52; D 2.18; R 2.14; I 2.57
H3: L 2.08; K 2.22; Q 1.45; T 2.09; P 1.04; D 3.44; E 2.11; Y 2.28; R 1.77; N 2.18; M 2.42; S 1.66; W 1.38; F 2.09
M16: P 1.65; C 2.64; Q 3.57; W 1.52; S 3.15; I 3.24; A 3.98; F 2.18; N 2.86; D 3.52; T 2.78; K 3.55; R 3.9; Y 1.57; V 2; H 2.43; L 1.98; G 3.45; E 3.85
H21: A 2.17; C 2.53; L 1.97; K 2.28; V 1.91; F 1.8; M 2.56; S 1.29; R 1.85; Q 1.35; W 2.41; E 1.89; Y 1.4; G 1.55; P 1.49; I 2.39; T 1.47
